The record followed here is patent CN113980129A (DONGDA BIOTECHNOLOGY SUZHOU CO LTD, dated 2022).

Residue numbers refer to the chain shown, from its start. Names and notes keep the numbering of the source.

T1: 重组人IL-11 (recombinant human interleukin-11) (human, UniProt P20809 22-199)
T1 construct: Called recombinant human IL-11 as immunogen; the assays say only IL-11; also called IL-11抗原; IL-11-Biotin
T1 sequence (looked up): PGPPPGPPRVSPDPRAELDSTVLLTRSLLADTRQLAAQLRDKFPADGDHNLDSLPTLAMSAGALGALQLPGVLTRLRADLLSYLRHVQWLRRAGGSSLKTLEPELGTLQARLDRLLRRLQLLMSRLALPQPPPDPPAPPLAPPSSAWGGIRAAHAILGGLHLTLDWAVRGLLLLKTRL

B1: hu10C2-hIgG4 (antibody, V domains shown)
VH: QVHLVQSGAEVKKPGSSVKVSCKAPGYTFSSYWIEWVRQAPGQGLEWIGEILPGSGNTNYNEKFKGRATFTADTSTSTAYMELSSLRSEDTAVYYCASPSSTVDYAMDYWGQGTLVTVSS
VL: EIVLTQSPGTLSLSPGERATLSCRASRSVSTSGYNYMHWYQQKPGQAPRLLIFLASNLESGIPDRFSGSGSGTDFTLTISRLEPEDFAVYYCQHSRELPYTFGQGTKLEIK
notes: also called 10C2人源化抗体
B2: hu16E12-hIgG4 (antibody, V domains shown)
VH: QVQLVQSGAEVKKPGASVKVSCKASGYTFTSYYMYWVRQAPGQGLEWIGEINPSNGGTDFNEKFKNRVTMTVDTSISTAYMELSRLRSDDTAVYYCTREEIHYGYDKGFAYWGQGTLVTVSS
VL: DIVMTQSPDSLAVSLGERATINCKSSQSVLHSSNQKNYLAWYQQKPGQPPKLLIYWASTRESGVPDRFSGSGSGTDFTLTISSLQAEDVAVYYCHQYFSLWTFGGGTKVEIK
notes: also called 16E12人源化抗体; hu16E12 Wild Type
B3: Control-3C6 (antibody, V domains shown)
VH: EVQLVQSGAEVKKPGASVKISCKASGYTFTDYNMDWVKQAPGQRLEWIGDINPHNGGPIYNQKFTGRATLTVDKSASTAYMELSSLRSEDTAVYYCARGELGHWYFDVWGQGTTVTVSS
VL: DIVLTQSPASLALSPGERATLSCRASKSVSTSGYSYIHWYQQKPGQAPRLLIYLASNLDSGVPARFSGSGSGTDFTLTISSLEEEDFATYYCQHSRDLPPTFGQGTKLEIKR
B4: hu16E12 L94H (antibody, V domains shown)
VH: B2 VH
VL: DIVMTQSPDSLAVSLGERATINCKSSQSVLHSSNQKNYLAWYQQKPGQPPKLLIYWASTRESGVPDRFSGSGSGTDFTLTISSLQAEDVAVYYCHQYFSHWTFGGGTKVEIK
B5: hu16E12 N54S (antibody, V domains shown)
VH: B2 VH with N55S
VL: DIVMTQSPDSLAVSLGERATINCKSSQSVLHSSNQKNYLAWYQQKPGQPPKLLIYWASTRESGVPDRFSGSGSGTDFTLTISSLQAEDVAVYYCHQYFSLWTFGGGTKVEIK
notes: CDR mutant of hu16E12 (IgG4); placed on VH (CDR2, probably Kabat) by inference
B6: hu16E12 G55V (antibody, V domains shown)
VH: B2 VH with G56V
VL: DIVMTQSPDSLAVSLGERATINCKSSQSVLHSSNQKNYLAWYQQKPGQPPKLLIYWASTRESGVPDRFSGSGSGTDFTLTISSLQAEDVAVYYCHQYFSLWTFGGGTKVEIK
notes: as for B5
B7: hu16E12 K64Q N65G (antibody, V domains shown)
VH: B2 VH with K65Q, N66G
VL: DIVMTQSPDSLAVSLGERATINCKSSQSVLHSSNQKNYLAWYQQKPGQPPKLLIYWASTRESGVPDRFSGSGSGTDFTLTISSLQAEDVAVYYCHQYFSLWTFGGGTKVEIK
notes: CDR mutant of hu16E12 (IgG4); placed on VH (CDR2, probably Kabat numbering) by inference
B8: hu16E12 N60A N65G (antibody, V domains shown)
VH: B2 VH with N61A, N66G
VL: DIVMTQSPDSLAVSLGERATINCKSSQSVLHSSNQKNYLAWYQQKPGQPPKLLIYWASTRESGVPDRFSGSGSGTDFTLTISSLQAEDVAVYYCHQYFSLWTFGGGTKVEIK
notes: as for B5
B9: hu16E12 E61Q N65G (antibody, V domains shown)
VH: B2 VH with E62Q, N66G
VL: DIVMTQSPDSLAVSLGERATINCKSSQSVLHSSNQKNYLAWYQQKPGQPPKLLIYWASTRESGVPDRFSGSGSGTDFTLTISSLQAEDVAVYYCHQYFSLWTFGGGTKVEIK
notes: as for B5
B10: hu16E12 N65G (antibody, V domains shown)
VH: B2 VH with N66G
VL: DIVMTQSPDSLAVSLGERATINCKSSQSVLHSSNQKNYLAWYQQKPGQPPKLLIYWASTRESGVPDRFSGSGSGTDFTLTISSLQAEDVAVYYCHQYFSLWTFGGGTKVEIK
notes: as for B5
B11: hu16E12 G55A (antibody, V domains shown)
VH: B2 VH with G56A
VL: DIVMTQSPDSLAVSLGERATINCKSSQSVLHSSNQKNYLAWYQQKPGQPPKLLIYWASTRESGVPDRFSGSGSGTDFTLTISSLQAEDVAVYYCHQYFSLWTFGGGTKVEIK
notes: as for B5
B12: hu16E12 N54Q (antibody, V domains shown)
VH: B2 VH with N55Q
VL: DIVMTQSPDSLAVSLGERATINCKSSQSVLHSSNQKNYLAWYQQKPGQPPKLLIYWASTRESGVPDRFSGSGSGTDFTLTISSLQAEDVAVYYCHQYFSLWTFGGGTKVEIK
notes: as for B5
B13: 6B9 (antibody, V domains shown)
VH: EVQLVESGGGSVKPGGSLKLSCAASGFTFSNYAMSWVRQSPEKRLEWVAEISNGGSYTYYPDTVTGRFTISRDNAKNTLYLEMSSLRSEDTAMYYCVRHYDGYYGGILDFAMDYWGQGTSVTVSS
VL: DIQMTQSPSSLSASLGGKVTITCKASQDINKCIAWYQHKPGKGPRLLIHYTSTLQPGIPSRFSGSGSGRDYSFTISNLEPEDIATYYCLQYDYLHTFGGGTKLEIK
notes: Mouse hybridoma antibody purified on Protein A
B14: 14E1 (antibody, V domains shown)
VH: EVQLQQSGPVLVKPGASVKMSCKASGYTFTDYYMNWVKQSHGKSLEWIGVFNPYNGGTVYNQKFKGKATLTVDKSSSTAYMELSSLTSEDSAVYYCAREDYGSYYVVFDYWGQGTTLTVSS
VL: QIVLSQSPAILSASPGEKVTMTCRASSSVSYMHWYQQKPGSSPKPWIYATSNLASGVPARFSGSGSGTSYSLTISRVEAEDAATYYCQHWSSNPLTFGAGTKLELK
notes: as for B13
B15: 16F3 (antibody, V domains shown)
VH: QVQLQQSGAELVRPGVSVKISCKGSGDTFTDYAMHWVKQSHAKSLEWIGVISTYYGDVSYNQKFKGKATMTVDKSSSTAYMELVRLTSEDSAIYYCARGYYDYAWFAYWGQGTLVTVSA
VL: QIVLTQSPAIMSASPGEKVTMTCSASSSLNYMHWYQQKSGTSPKRWIYDTSKLASGVPARFSGSGSGTSYSLTISSMEAEDAATYYCQQWSSNPLTFGAGTKLELK
notes: as for B13
B16: 4A2 (antibody, V domains shown)
VH: QVQLQQSGGELVRPGVSVKISCKGSGYKITDYAMHWVKQSHAESLEWIGVISSYYGDTSYNQKFKGKATMTVDISSSTAYMEIARLTSEDSAIYYCAIGLWDVGYFDYWGQGTTLTVSS
VL: B15 VL with L29V, N30S, H33Q, S91V, N93K, P94A, L95V, A99S, L105I
notes: as for B13
B17: 10C2 (antibody, V domains shown)
VH: QVHLQQSGTELMKPGASVKISCKAPGYTFSSYWIEWVKQRPGHGLEWIGEILPGSGNTNYNEKFKGKATFTADTSSNTAYMQLSSLTSEDSAVYYCASPSSTVDYAMDYWGQGTSVTVSS
VL: DIVLTQSPASLGVSLGQRATISCRASRSVSTSGYNYMHWYQQKPGQPPKLLIFLASNLESGVPARFSGSGSGTDFTLNIHPVEEEDAATYHCQHSRELPYTFGGGTKLEIK
notes: Mouse hybridoma antibody purified on Protein A; also called 鼠源10C2
B18: 16E12 (antibody, V domains shown)
VH: QVQLQQSGAELVKPGASVKLSCKASGYTFTSYYMYWVKQRPGQGLEWIGEINPSNGGTDFNEKFKNKATLTVDKSSSTAYMQLSSLTSEDSAVYYCTREEIHYGYDKGFAYWGQGTLVTVSA
VL: NIMMTQSPSSLAVSAGEKVTMSCKSSQSVLHSSNQKNYLAWYQQKPGQSPKLLIYWASTRESGVPDRFTGSGSGTDFTLTISSIQAEDLAVYYCHQYFSLWTFGGGTKLEIK
notes: Mouse hybridoma antibody purified on Protein A; also called 鼠源16E12
B19: 18B6 (antibody, V domains shown)
VH: B18 VH with S31N, M34I, V37M, D59N, N66S, Y95F, T97S
VL: B18 VL with S10Y, H31N, T59I, I84V, Y93F, L100S, K108R
notes: as for B13
B20: 1D12 (antibody, V domains shown)
VH: EVQLQQFGAELVKPGAAVKISCKASGYTFTDYNMDWVRQSHGKSLEWIGEINPNYDSTRYNQKFKGKATLTVDKSSSTAYMELRSLTSEDTAVYYCARSDYYAMDYWGQGTSVTVSS
VL: SIVMTQTPSFLLVSAGDRVTITCKASQSVSNDVAWYQQKPGQSPKLLIYYASNRFTGVPDRFTGSGFGTDFTFTISTVQTGDLAVYFCRQDYISPYTFGGGTKLEIK
notes: as for B13
B21: 26A6 (antibody, V domains shown)
VH: QIQLVQSGPELKKPGETVKISCKASGYTFTNYGMNWVKQAPGKGLKWMGWINTNTGETTYAEEFKGRFAFSLEASVSTAHLQINNLKNEDTATYFCAKEDFYGMDYWGQGSSVTVSS
VL: NIVMTQTPKFLLVSAGDRVTMTCKASQSVSNDVVWYQQKPGQSPKLLIYYASNRYTGVPDRFIGSGYGTEFTFTISTVQAEDLAVYFCQQDYSFPYTFGGGTKLEIK
notes: as for B13
B22: 14F6 (antibody, V domains shown)
VH: EVKLEESGGGLVQPGGSMKLSCVASGFTFSKYWMNWVRQSPEKGLEWVAEIRLKSDNYATQYAESVKGRFTMSRDDSKSSVYLQMKNLRAEDSGIYYCTKEGYDGYAMDYWGQGTSVTVSS
VL: B21 VL with N1R, M21I, S28N, V29I, S30N, I63T, E70D, S93I, F94S, Y96W
notes: as for B13

The first experiment addresses T1, 重组人IL-11 (recombinant human …). Kind of experiment: ELISA, IL-11 coated on plate.
For B1, the EC50 was 0.0659 µg/mL.
On to B2, for which the half-maximal effective concentration (EC50) is 0.0624 µg/mL.
The same measure, in the same setting: the result for B3 reads 22.5 µg/mL.

For the next experiment the target is unchanged. Kind of experiment: cell-based or functional assay.
Take B1: the “IC50, STAT3 luciferase reporter in DLD1-IL-11R-pSTAT3-Luc cells” value came to 4.86 ng/mL.
On the same count and under the same terms, the result for B2 reads 1.16 ng/mL; that for B3, 178 ng/mL.

The next experiment shares this target. Kind of experiment: SPR (Biacore), antibody captured on anti-human IgG CM5 chip, IL-11 as analyte.
For the molecule B1, the Kd amounted to 0.0149 nM, the off-rate constant (koff) was determined as 2.2e-05 s⁻¹ and the on-rate (kon) came out at 1.47e+06 M⁻¹ s⁻¹.
In the same order, the values of B2 are 0.0158 nM, 4.66e-05 s⁻¹ and 2.96e+06 M⁻¹ s⁻¹.
Consider B4, for which the Kd is 0.00187 nM, the koff worked out at 3.91e-06 s⁻¹ and the kon worked out at 2.09e+06 M⁻¹ s⁻¹.
Consider B5, for which the dissociation constant (Kd) amounted to 0.0245 nM, the koff amounted to 7e-05 s⁻¹ and the on-rate constant (kon) was 2.86e+06 M⁻¹ s⁻¹.
The corresponding values for B6 are 0.00387 nM, 9.32e-06 s⁻¹ and 2.41e+06 M⁻¹ s⁻¹.
For B7, the Kd amounted to 0.0157 nM, the koff came out at 5.76e-05 s⁻¹ and the kon amounted to 3.68e+06 M⁻¹ s⁻¹.
For the molecule B8, the Kd was determined as 0.0268 nM, the koff was found to be 7.51e-05 s⁻¹ and the kon worked out at 2.81e+06 M⁻¹ s⁻¹.
With B9, the Kd was found to be 0.0363 nM, the dissociation rate constant (koff) came out at 8.54e-05 s⁻¹ and the association rate constant (kon) worked out at 2.35e+06 M⁻¹ s⁻¹.
For B10, the dissociation constant Kd is 0.0189 nM, the off-rate constant (koff) was found to be 5.25e-05 s⁻¹ and the on-rate constant (kon) was found to be 2.78e+06 M⁻¹ s⁻¹.
In the same order, the values of B11 are 0.012 nM, 3.56e-05 s⁻¹ and 2.96e+06 M⁻¹ s⁻¹.
As for B12, the Kd is 0.0363 nM, the koff is 0.000101 s⁻¹ and the association rate constant (kon) came to 2.78e+06 M⁻¹ s⁻¹.

For the next experiment the target is unchanged. Kind of experiment: FACS, blocking of IL-11-biotin binding to 293T-IL-11Rα/gp130 cells.
As for B1, the IC50 was determined as 0.0811 µg/mL.
For the molecule B2, the IC50 was determined as 0.0679 µg/mL.
Turning to B3, the half-inhibitory concentration (IC50) was found to be 4.19 µg/mL.

For another experiment the target is unchanged. Kind of experiment: ELISA, IL-11 coated on plate. The source holds these as a separate data set.
Regarding B13, the binding result was “binds”.
With B14, the binding result is on record as “binds”.
Still for that read-out and setting: in the case of B15 it was “binds”; in that of B16, “binds”.
Still for that read-out and setting: in the case of B17 it was “binds”; in that of B18, “binds”.
On to B19, for which the binding result is given as “binds”.
The same measure, in the same setting: the result for B20 reads “binds”; that for B21, “binds”; that for B22, “binds”.
